Here are results for 1 molecule from PMC11800616 (Mobile DNA, 2025).

Assay [1] concerns the target T1, LINE-1 ORF2p (translation product of L1 ORF2), endogenous (human (endogenous in N2102Ep and …, UniProt O00370 1-1275)). The experiment in a line: affinity purification with mass spectrometry.
In assay [2] the target is T1, LINE-1 ORF2p (translation product of L1 …). The experiment in a line: affinity purification with mass spectrometry. The source holds these as a separate data set.

Read-outs that look alike come from different tables or passages of the source.

T1 sequence (O00370 whole entry): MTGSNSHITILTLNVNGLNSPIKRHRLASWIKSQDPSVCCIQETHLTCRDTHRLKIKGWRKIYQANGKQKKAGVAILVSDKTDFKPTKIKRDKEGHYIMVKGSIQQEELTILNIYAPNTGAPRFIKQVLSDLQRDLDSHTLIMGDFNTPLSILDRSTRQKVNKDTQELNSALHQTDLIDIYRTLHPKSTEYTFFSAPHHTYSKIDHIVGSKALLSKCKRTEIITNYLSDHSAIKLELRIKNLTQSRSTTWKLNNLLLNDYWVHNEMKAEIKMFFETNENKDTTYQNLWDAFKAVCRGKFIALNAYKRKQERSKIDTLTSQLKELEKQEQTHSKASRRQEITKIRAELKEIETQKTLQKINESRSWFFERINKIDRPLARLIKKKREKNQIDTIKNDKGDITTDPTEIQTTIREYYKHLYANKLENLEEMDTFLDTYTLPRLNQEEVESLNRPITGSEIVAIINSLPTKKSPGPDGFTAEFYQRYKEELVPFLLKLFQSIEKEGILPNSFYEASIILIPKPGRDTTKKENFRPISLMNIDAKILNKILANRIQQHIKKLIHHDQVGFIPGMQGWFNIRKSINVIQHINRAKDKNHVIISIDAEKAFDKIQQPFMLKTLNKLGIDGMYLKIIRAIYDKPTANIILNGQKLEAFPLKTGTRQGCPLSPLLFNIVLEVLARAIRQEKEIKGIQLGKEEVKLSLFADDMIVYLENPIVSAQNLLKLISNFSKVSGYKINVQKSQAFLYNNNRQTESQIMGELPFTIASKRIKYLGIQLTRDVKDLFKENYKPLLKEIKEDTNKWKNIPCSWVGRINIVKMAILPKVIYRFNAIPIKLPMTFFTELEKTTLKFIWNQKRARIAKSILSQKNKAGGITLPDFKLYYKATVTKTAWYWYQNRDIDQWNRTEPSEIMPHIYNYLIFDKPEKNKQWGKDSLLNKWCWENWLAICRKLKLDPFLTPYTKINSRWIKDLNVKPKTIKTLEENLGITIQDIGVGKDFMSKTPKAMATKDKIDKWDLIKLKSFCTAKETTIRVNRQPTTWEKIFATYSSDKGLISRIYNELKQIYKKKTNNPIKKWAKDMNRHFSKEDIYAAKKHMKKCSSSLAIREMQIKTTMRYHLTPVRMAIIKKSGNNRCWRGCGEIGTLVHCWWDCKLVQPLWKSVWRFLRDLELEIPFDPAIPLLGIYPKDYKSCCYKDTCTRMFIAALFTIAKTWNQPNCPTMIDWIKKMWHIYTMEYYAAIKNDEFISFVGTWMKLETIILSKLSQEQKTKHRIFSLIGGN

B1: LINE-1 ORF1p (translation product of L1 ORF1), endogenous (natural protein)
chain: MGKKQNRKTGNSKTQSASPPPKERSSSPATEQSWMENDFDELREEGFRRSNYSELREDIQTKGKEVENFEKNLEECITRITNTEKCLKELMELKTKARELREECRSLRSRCDQLEERVSAMEDEMNEMKREGKFREKRIKRNEQSLQEIWDYVKRPNLRLIGVPESDVENGTKLENTLQDIIQENFPNLARQANVQIQEIQRTPQRYSSRRATPRHIIVRFTKVEMKEKMLRAAREKGRVTLKGKPIRLTADLSAETLQARREWGPIFNILKEKNFQPRISYPAKLSFISEGEIKYFIDKQMLRDFVTTRPALKELLKEALNMERNNRYQPLQNHAKM
Consider B1, for which the entries for the “ORF1p:ORF2p molar ratio in the affinity enriched fraction” value in assay [1] and in assay [2] were ~184 molar ratio (ORF1p per ORF2p) and ~279 molar ratio (ORF1p per ORF2p), respectively.
